According to US20260117259A1:
Read-outs that look alike come from different tables or passages of the source.

What was measured:
SOSIP [1] = experiment: flow cytometry of murine B cells edited with the VRC26.25 HCDR3, APC-labeled SOSIP trimer against anti-IgM; activation High dose LPS
BG505ConM-v8.1 = experiment: flow cytometry, VRC26.25 HCDR3-edited primary murine B cells, labeled SOSIP against surface IgM
CRFConM-v8.1ds (GnTI-) = experiment: as above
[2] = molecular target: ConM SOSIP protein (v8.1ds) modified with the CRF250 V1V2 region (HIV-1); experiment: as above
ConM-v7ds (GnTI-) = experiment: as above
CRF250ConM-v7ds (GnTI-) = experiment: as above
BG505ConM-v7ds = experiment: as above
CRF250ConM-v7ds = experiment: as above
BG505ConM-v7ds (GnTI-) = experiment: as above
ConM-v7 (GnTI-) = experiment: as above
ConM-8.1ds (GnTI-) = experiment: as above
CRF250ConM-v8.1 (GnTI-) = experiment: as above
ConM-v7ds = experiment: as above
BG505ConM-v8.1 (GnTI-) = experiment: as above
ConM-v8.1ds [3] = experiment: as above
BG505ConM-v8.1ds (GnTI-) = experiment: as above
[4] = molecular target: ConM SOSIP protein (v8.1ds) modified with the BG505 V1V2 region (HIV-1); experiment: as above
ConM-v8.1(GnTI-) = experiment: as above
ConM-v7 = experiment: as above
SOSIP [5] = experiment: flow cytometry of murine B cells edited with the VRC26.25 HCDR3, APC-labeled SOSIP trimer against anti-IgM; activation Anti-CD180
[6] = molecular target: ConM SOSIP protein (v8.1ds) modified with the CRF250 V1V2 region (HIV-1); experiment: flow cytometry, VRC26.25 HCDR3-edited primary murine B cells, labeled SOSIP against surface IgM; remark: listed apart in the source
[7] = molecular target: 16055-ConM-v8.1ds SOSIP trimer (HIV-1); experiment: as above
ConM-v8.1ds [8] = experiment: as above; remark: listed apart in the source
[9] = molecular target: ConM SOSIP protein (v8.1ds) modified with the BG505 V1V2 region (HIV-1); experiment: as above; remark: listed apart in the source
[10] = molecular target: 16055-ConM-v8.1ds SOSIP trimer (HIV-1); experiment: flow cytometry, primary murine B cells edited in the HCDR3, labeled 16055-ConM-v8.1ds SOSIP against surface IgM
SOSIP [11] = experiment: flow cytometry of murine B cells edited with the VRC26.25 HCDR3, APC-labeled SOSIP trimer against anti-IgM; activation Low dose LPS + IL4

## B-cell receptors of primary murine B cells edited to express the VRC26.25 HCDR3 (antibody)
SOSIP [1]
  % of cells above the SOSIP gate line: 3.41%
BG505ConM-v8.1
  % of cells in the SOSIP gate: 5.19%
CRFConM-v8.1ds (GnTI-)
  % of cells in the SOSIP gate: 7.8%
[2]
  % of cells in the SOSIP gate: 6.6%
ConM-v7ds (GnTI-)
  % of cells in the SOSIP gate: 4.48%
CRF250ConM-v7ds (GnTI-)
  % of cells in the SOSIP gate: 6.33%
BG505ConM-v7ds
  % of cells in the SOSIP gate: 5.08%
CRF250ConM-v7ds
  % of cells in the SOSIP gate: 5.46%
BG505ConM-v7ds (GnTI-)
  % of cells in the SOSIP gate: 4.61%
ConM-v7 (GnTI-)
  % of cells in the SOSIP gate: 7.31%
ConM-8.1ds (GnTI-)
  % of cells in the SOSIP gate: 7.68%
CRF250ConM-v8.1 (GnTI-)
  % of cells in the SOSIP gate: 5.16%
ConM-v7ds
  % of cells in the SOSIP gate: 5.51%
BG505ConM-v8.1 (GnTI-)
  % of cells in the SOSIP gate: 7.41%
ConM-v8.1ds [3]
  % of cells in the SOSIP gate: 6.58%
BG505ConM-v8.1ds (GnTI-)
  % of cells in the SOSIP gate: 6.39%
[4]
  % of cells in the SOSIP gate: 5.87%
ConM-v8.1(GnTI-)
  % of cells in the SOSIP gate: 6.89%
ConM-v7
  % of cells in the SOSIP gate: 5.57%
SOSIP [5]
  % of cells above the SOSIP gate line: 4.47%
[6]
  % of cells in the SOSIP gate: 3.22%
[7]
  % of cells in the SOSIP gate: 3.83%
ConM-v8.1ds [8]
  % of cells in the SOSIP gate: 3.62%
[9]
  % of cells in the SOSIP gate: 3.59%
[10]
  % of cells in the SOSIP gate: 4.54%
SOSIP [11]
  % of cells above the SOSIP gate line: 4.62%
